The term Kd denotes the constant that tells how readily two partners part at equilibrium. Low values mean tighter binding, high ones weaker binding. By koff is commonly meant a measure of how fast the partners let go of each other. A high value points to fast dissociation.

First the molecules themselves.
B3: MazF (enzyme)
chain: MIVKRGDVYFADLSPVVGSEQGGVRPVLVIQNDIGNRFSPTAIVAAIAAQIQKAKLPTHVEIDAKRYGFERDSVILLEQIRTIDKQRLTDKITHLDDEMMDKVDEALQISLALIDF

Assay in all cases: BLI
Background: BLI is a label-free optical method that tracks binding on a fibre tip over time.

Assay [1] concerns the target T1, phi3T_93 (Bacillus subtilis phage phi3T).
T1 chain: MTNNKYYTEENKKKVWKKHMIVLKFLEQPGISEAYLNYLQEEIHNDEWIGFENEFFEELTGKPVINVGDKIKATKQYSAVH

In assay [2] the target is B3.
The target in assay [3] is T1, phi3T_93.
The target in assay [4] is B3.
Assay [5] has as its target T2, YosL^phi3T (Bacillus subtilis phage phi3T).
T2 chain: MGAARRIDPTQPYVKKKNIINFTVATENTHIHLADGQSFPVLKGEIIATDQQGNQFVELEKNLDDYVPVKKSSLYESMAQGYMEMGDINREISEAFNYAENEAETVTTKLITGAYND

Assay [6] concerns the target T3, YosL^SPβ (Bacillus subtilis phage SPβ, UniProt O31877 1-117).
T3 chain: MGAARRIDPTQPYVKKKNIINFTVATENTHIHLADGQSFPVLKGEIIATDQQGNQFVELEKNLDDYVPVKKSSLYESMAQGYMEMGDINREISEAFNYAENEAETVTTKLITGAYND

Assay [7] addresses T2, YosL^phi3T.
Assay [8] concerns the target T3, YosL^SPβ.

B1: MazE (natural protein)
chain: MSESSARTEMKISLPENLVAELDGVAMREKRSRNELISQAVRAYVSERTTRHNRDLMRRGYMEMAKINLNISSEAHFAECEAETTVERLVSGG
As to B1, the figures for the Kd in assay [1] and in assay [2] were 27.3 nM and 404 nM, respectively. In addition, the koff in assay [3] is 0.0013 s⁻¹; in assay [4], 0.01 s⁻¹.

B2: AimX (natural protein)
chain: MKRALGKAISYEEMAKGYEEMAAINSIIAQEDNHLENEAEMIKTRYKTLAS
In the case of B2, the Kd in assay [1] amounted to 184 nM; in assay [2], 81.3 nM. Further, the koff amounted to 0.045 s⁻¹ in assay [3] and 0.0066 s⁻¹ in assay [4].
With B3, the Kd in assay [5] was found to be 20.2 nM; in assay [6], 15 nM. Moreover, the koff worked out at 0.00033 s⁻¹ in assay [7] and 0.00085 s⁻¹ in assay [8].

Values taken from publication PMC10769878 (2024).
